Measured values reported in patent EP1745799B1.

Target: ΔEGFR (extracellular-deleted mutant human EGFR) (human) (UniProt P00533)
Assay: cell-based or functional assay

decrease of the phosphorylation content of immunoprecipitated p155ΔEGFR monomers (scanning densitometry, PY-20 blot of mAb Δ124 immunoprecipitates): 33.7%
ratio of PTyr/ΔEGFRs (scanning densitometry): 1.04
Substance: T691stop neu (ectodomain-derived, carboxyl-terminal deletion mutant of the rat p185neu oncogene) (from UniProt P06494 23-687) (receptor)
